{"source": "paper PMC6271157", "about": "“High Efficiency Acetylcholinesterase Immobilization on DNA Aptamer Modified Surfaces”", "binders": {"B1": {"name": "R15/19 (also R15/C19) (ssDNA)", "DNA": "AAGCATCCGCTGGTTGACTGTAGCTCTGGCAGACGTAGTGTGAAGGTACCAGCTATTGGGATCTTGGACCCTGCGAA", "modifications": "5'-biotin (ELONA)"}}, "key": {"[1]": {"target": "T1, acetylcholinesterase (AChE) (electric eel, UniProt O42275 24-633)", "T1 sequence (O42275 24-633)": "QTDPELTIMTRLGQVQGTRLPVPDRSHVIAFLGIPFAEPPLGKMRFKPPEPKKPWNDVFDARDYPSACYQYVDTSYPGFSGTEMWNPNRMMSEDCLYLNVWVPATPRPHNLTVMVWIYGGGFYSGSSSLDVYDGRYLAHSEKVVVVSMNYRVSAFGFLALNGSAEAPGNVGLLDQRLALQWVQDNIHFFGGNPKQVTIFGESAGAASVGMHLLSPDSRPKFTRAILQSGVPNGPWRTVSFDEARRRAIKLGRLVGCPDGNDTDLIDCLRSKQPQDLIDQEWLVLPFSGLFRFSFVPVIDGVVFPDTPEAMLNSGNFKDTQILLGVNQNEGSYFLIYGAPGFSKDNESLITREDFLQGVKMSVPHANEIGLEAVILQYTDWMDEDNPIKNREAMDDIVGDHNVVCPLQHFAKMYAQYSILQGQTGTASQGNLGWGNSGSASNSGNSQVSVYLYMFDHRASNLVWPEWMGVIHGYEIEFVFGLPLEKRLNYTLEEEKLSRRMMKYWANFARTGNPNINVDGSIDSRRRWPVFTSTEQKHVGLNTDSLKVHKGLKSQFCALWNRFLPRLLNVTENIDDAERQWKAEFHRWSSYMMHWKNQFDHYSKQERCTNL", "assay": "ELONA; selection buffer, ionic strength ~0.15 M, 137 mM NaCl, 4 mM MgCl2; 8 mM Na2HPO4, 2 mM NaH2PO4, 2.7 mM KCl, 137 mM NaCl, 4 mM MgCl2, pH 7.4, room temperature, 2 h; wells coated with 10 nM AChE, blocked with 1% BSA; washes with 0.05% Tween 20", "conditions": "protein: native; label: 5'-biotin, detected by streptavidin-HRP"}, "[2]": {"target": "T1, acetylcholinesterase (AChE)", "assay": "ELONA; low ionic strength ~0.02 M, no NaCl, 4 mM MgCl2; 8 mM Na2HPO4, 2 mM NaH2PO4, 2.7 mM KCl, 137 mM NaCl, 4 mM MgCl2, pH 7.4, room temperature, 2 h; wells coated with 10 nM AChE, blocked with 1% BSA; washes with 0.05% Tween 20", "conditions": "protein: native; label: 5'-biotin, detected by streptavidin-HRP"}}, "data": [{"binder": "B1", "values": [{"measurement": "Kd", "setting": "[1]", "result": "0.157 ± 0.042", "unit": "nM"}, {"measurement": "Kd", "setting": "[2]", "result": "0.243 ± 0.047", "unit": "nM"}]}]}
